First the molecules themselves.
B1: D. melanogaster augmin N-clamp with Dgt6^3A-mut (K82A, R88A, K96A) (complex)
chain 1: MSDAVDKMLAGMAANRQTMNRQLAKIDEIMERSNNTLLHIESNSKAFSQNVALSETQKMYNLRPEAEMTLSKILENFKLLMSSSDQREETYSALEGCLAYRHRVEHLGSSVRKLVALYDTVGQMKNSQEEQYASEDSP
chain 2: MDRTIIAPWKAEEKEQSEKLHRKLQGLALVHPLPDELRKLIAWDMFLKPNQVAFVHVMHYLFRLLDPAEFKRRFFWPITDKASEANFASSTVEYLAHLNEKHQLHWANIKSYLVVMPGGMRFINFLLEFVGFVIQELIKQREKSLGLEAGTPNVSAKVMARQNAVMKEYASSYVVNLEENTALLRDKTQKIRRLMADLSADMGVPEEQLADDGFLDEFEATAALGVERVITQPTERKFDLEASLCGLKEAIDLFQVKQAENNQSKEAVEKALRGMRVLFDCDAVTEGDFYDPLGASKMDALLNGFNRISGTIAEQLDANDHYNESNAFVTTDLQALRVELSQSEVQLNNLLKKLNEPSKKDKGSANASGSARVQTLQPATPRFESVISSKFVSTPPIRIDMGGGGGRNAPVRLALQDDFNGKQFDALSNSLLAPAPPRSARKLKALDQSTGIDLNGTLNRSKINDPMQMLRTIHKNTSKVKAAPQANLSSLGSKWKQMQASFGFDEAPVPGAAVISPQTSPTDPSDPFTPLSGSECTRIERIPRTSENNTSLIAKSAAVIKVLEVSRNVLNLSTSPSGRLDALVPHTESHQQDVAPRLQLNDRTINDSLQLDPDFNIENDKNAFNVSHKFDFDQIGGEDDLQNISDSVLKDIIF
chain 3: METNVDFSSISSKLYRKYAQHVRNLKDVCVSKTVMKPGAFFDSLQQMMEEEAAATTPPRDLSSVADYAELFKTLEEYPANLQKMPKKRELQRTNSTLLRGADESVAMGINTSNVSLSLTRLEEQRSAVDVYNDFKGFQRKLAKIYDEAAALDTTESIYKQKLTQLHGFAQQLEKLMPTGGESPPDAFTSEQQEKLLTIAANMEQLNYLRSNSLQLPNPNEILATGSLAARLEMFVEVLTYTLLQVSSYNMAMI
chain 4: METPPTPTTTTPPSLTTEGTMDDIQYLLHLEAMRRFQEDSRNVKRQVEEQVRIWLDAKCEYQRDFGRLARLLKCGALQAAVDAHRVSDVNQVDQAAKDIASLRSKLGSDLRPAILDSNDVKQCLEHLNTTHKPRLNLCRQQREFAQNQEALRSLRTAVDGLENGMEMGMIQAMDRLVEDLLPPRETNN
B2: D. melanogaster augmin N-clamp with Msd5^Δ81–93 (loop deletion) (complex)
chain 1: MSDAVDKMLAGMAANRQTMNRQLAKIDEIMERSNNTLLHIESNSKAFSQNVALSETQKMYNLRPEAEMTLSKILENFKLLMSSSDQREETYSALEGCLAYRHRVEHLGSSVRKLVALYDTVGQMKNSQEEQYASEDSP
chain 2: MDRTIIAPWKAEEKEQSEKLHRKLQGLALVHPLPDELRKLIAWDMFLKPNQVAFVHVMHYLFRLLDPAEFKRRFFWPITDKKSEANFRSSTVEYLKHLNEKHQLHWANIKSYLVVMPGGMRFINFLLEFVGFVIQELIKQREKSLGLEAGTPNVSAKVMARQNAVMKEYASSYVVNLEENTALLRDKTQKIRRLMADLSADMGVPEEQLADDGFLDEFEATAALGVERVITQPTERKFDLEASLCGLKEAIDLFQVKQAENNQSKEAVEKALRGMRVLFDCDAVTEGDFYDPLGASKMDALLNGFNRISGTIAEQLDANDHYNESNAFVTTDLQALRVELSQSEVQLNNLLKKLNEPSKKDKGSANASGSARVQTLQPATPRFESVISSKFVSTPPIRIDMGGGGGRNAPVRLALQDDFNGKQFDALSNSLLAPAPPRSARKLKALDQSTGIDLNGTLNRSKINDPMQMLRTIHKNTSKVKAAPQANLSSLGSKWKQMQASFGFDEAPVPGAAVISPQTSPTDPSDPFTPLSGSECTRIERIPRTSENNTSLIAKSAAVIKVLEVSRNVLNLSTSPSGRLDALVPHTESHQQDVAPRLQLNDRTINDSLQLDPDFNIENDKNAFNVSHKFDFDQIGGEDDLQNISDSVLKDIIF
chain 3: METNVDFSSISSKLYRKYAQHVRNLKDVCVSKTVMKPGAFFDSLQQMMEEEAAATTPPRDLSSVADYAELFKTLEEYPANNSTLLRGADESVAMGINTSNVSLSLTRLEEQRSAVDVYNDFKGFQRKLAKIYDEAAALDTTESIYKQKLTQLHGFAQQLEKLMPTGGESPPDAFTSEQQEKLLTIAANMEQLNYLRSNSLQLPNPNEILATGSLAARLEMFVEVLTYTLLQVSSYNMAMI
chain 4: METPPTPTTTTPPSLTTEGTMDDIQYLLHLEAMRRFQEDSRNVKRQVEEQVRIWLDAKCEYQRDFGRLARLLKCGALQAAVDAHRVSDVNQVDQAAKDIASLRSKLGSDLRPAILDSNDVKQCLEHLNTTHKPRLNLCRQQREFAQNQEALRSLRTAVDGLENGMEMGMIQAMDRLVEDLLPPRETNN
B3: D. melanogaster augmin N-clamp, wild type (Msd1, Dgt6, Msd5-EGFP-HIS8, Dgt4-HIS8) (complex)
chain 1: MSDAVDKMLAGMAANRQTMNRQLAKIDEIMERSNNTLLHIESNSKAFSQNVALSETQKMYNLRPEAEMTLSKILENFKLLMSSSDQREETYSALEGCLAYRHRVEHLGSSVRKLVALYDTVGQMKNSQEEQYASEDSP
chain 2: MDRTIIAPWKAEEKEQSEKLHRKLQGLALVHPLPDELRKLIAWDMFLKPNQVAFVHVMHYLFRLLDPAEFKRRFFWPITDKKSEANFRSSTVEYLKHLNEKHQLHWANIKSYLVVMPGGMRFINFLLEFVGFVIQELIKQREKSLGLEAGTPNVSAKVMARQNAVMKEYASSYVVNLEENTALLRDKTQKIRRLMADLSADMGVPEEQLADDGFLDEFEATAALGVERVITQPTERKFDLEASLCGLKEAIDLFQVKQAENNQSKEAVEKALRGMRVLFDCDAVTEGDFYDPLGASKMDALLNGFNRISGTIAEQLDANDHYNESNAFVTTDLQALRVELSQSEVQLNNLLKKLNEPSKKDKGSANASGSARVQTLQPATPRFESVISSKFVSTPPIRIDMGGGGGRNAPVRLALQDDFNGKQFDALSNSLLAPAPPRSARKLKALDQSTGIDLNGTLNRSKINDPMQMLRTIHKNTSKVKAAPQANLSSLGSKWKQMQASFGFDEAPVPGAAVISPQTSPTDPSDPFTPLSGSECTRIERIPRTSENNTSLIAKSAAVIKVLEVSRNVLNLSTSPSGRLDALVPHTESHQQDVAPRLQLNDRTINDSLQLDPDFNIENDKNAFNVSHKFDFDQIGGEDDLQNISDSVLKDIIF
chain 3: METNVDFSSISSKLYRKYAQHVRNLKDVCVSKTVMKPGAFFDSLQQMMEEEAAATTPPRDLSSVADYAELFKTLEEYPANLQKMPKKRELQRTNSTLLRGADESVAMGINTSNVSLSLTRLEEQRSAVDVYNDFKGFQRKLAKIYDEAAALDTTESIYKQKLTQLHGFAQQLEKLMPTGGESPPDAFTSEQQEKLLTIAANMEQLNYLRSNSLQLPNPNEILATGSLAARLEMFVEVLTYTLLQVSSYNMAMI
chain 4: METPPTPTTTTPPSLTTEGTMDDIQYLLHLEAMRRFQEDSRNVKRQVEEQVRIWLDAKCEYQRDFGRLARLLKCGALQAAVDAHRVSDVNQVDQAAKDIASLRSKLGSDLRPAILDSNDVKQCLEHLNTTHKPRLNLCRQQREFAQNQEALRSLRTAVDGLENGMEMGMIQAMDRLVEDLLPPRETNN

This assay addresses Taxol-stabilized microtubules polymerised from purified porcine brain tubulin (porcine) (UniProt P02550). The assay can be described thus: co-sedimentation; tubulin co-sedimentation: taxol-stabilized MTs (varied, α/β-tubulin heterodimer molarity) with 1 µM purified N-clamp, 0.25 mg/ml BSA, BRB80-MT buffer (80 mM PIPES, 1 mM MgCl2, 1 mM EGTA, 12.5% glycerol, pH 6.8), 20 min at room temperature, 200,000 g 10 min 27 °C; SDS-PAGE densitometry of pellet; apparent Kd from a quadratic fit.
As to B1, the Kd came to 25500 nM. In the case of B2, the Kd is 1000 nM. In the case of B3, the Kd is 400 nM.

Values taken from publication PMC12373997.
